System: Escherichia coli TOP10
Experiment: shrunken log2 fold change of peptide-encoding DNA abundance (4.5 h post-induction vs induction); higher = less antimicrobial activity (less host growth inhibition)
Conditions: time post-induction: 4.5 h; library: site-saturation at positions 5, 18, 19, 20
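Further: peptides expressed intracellularly from a pBAD plasmid library in pooled LB shake-flask culture, induced with 0.3% L-arabinose, DNA abundance read by NGS, three biological replicates, DESeq2 with apeglm shrinkage.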

| Sequence | shrunken log2 fold change |
| --- | --- |
| RRIRVRPPRLPRPRPRPCGDPRP | -0.18 |
| RRIRARPPRLPRPRPRPRFLPRP | 0.371 |
| RRIRGRPPRLPRPRPRPFKSPRP | 0.08 |
| RRIRTRPPRLPRPRPRPVAEPRP | 0.191 |
| RRIRNRPPRLPRPRPRPKWNPRP | -0.319 |
| RRIRNRPPRLPRPRPRPSNTPRP | -0.446 |
| RRIRGRPPRLPRPRPRPWNWPRP | 0.232 |
| RRIRWRPPRLPRPRPRPKIVPRP | -0.272 |
| RRIRLRPPRLPRPRPRPYDFPRP | -0.0867 |
| RRIRNRPPRLPRPRPRPTMEPRP | 0.274 |
| RRIRKRPPRLPRPRPRPIAVPRP | 0.131 |
| RRIRLRPPRLPRPRPRPIDKPRP | -0.122 |
| RRIRPRPPRLPRPRPRPAWIPRP | 0.0812 |
| RRIRMRPPRLPRPRPRPTLMPRP | 0.0126 |
| RRIRNRPPRLPRPRPRPTTRPRP | 0.0475 |
| RRIRDRPPRLPRPRPRPEPIPRP | -0.0153 |
| RRIRHRPPRLPRPRPRPNWFPRP | -0.0203 |
| RRIRLRPPRLPRPRPRPIEHPRP | -0.31 |
| RRIRGRPPRLPRPRPRPAWTPRP | 0.619 |
| RRIRWRPPRLPRPRPRPQTEPRP | 0.0468 |
| RRIRGRPPRLPRPRPRPARSPRP | 0.686 |
| RRIRDRPPRLPRPRPRPAHLPRP | 0.0723 |
| RRIRARPPRLPRPRPRPYVSPRP | -0.0383 |
| RRIRMRPPRLPRPRPRPQRGPRP | 1.24 |
| RRIRRRPPRLPRPRPRPIQEPRP | 0.0641 |

| Sequence | shrunken log2 fold change |
| --- | --- |
| RRIRCRPPRLPRPRPRPTRFPRP | 0.696 |
| RRIRLRPPRLPRPRPRPSEAPRP | 0.12 |
| RRIRGRPPRLPRPRPRPHGTPRP | 0.331 |
| RRIRPRPPRLPRPRPRPFTNPRP | -0.286 |
| RRIRTRPPRLPRPRPRPGYIPRP | -0.288 |
| RRIRSRPPRLPRPRPRPRADPRP | 0.387 |
| RRIRLRPPRLPRPRPRPKFNPRP | -0.437 |
| RRIRVRPPRLPRPRPRPLYFPRP | -0.53 |
| RRIRHRPPRLPRPRPRPEPLPRP | 0.0544 |
| RRIRHRPPRLPRPRPRPRYFPRP | -0.439 |
| RRIRMRPPRLPRPRPRPEYDPRP | 2.81 |
| RRIRKRPPRLPRPRPRPVYFPRP | -0.181 |
| RRIRDRPPRLPRPRPRPYTWPRP | 0.00489 |
| RRIRGRPPRLPRPRPRPFYDPRP | 0.0844 |
| RRIRQRPPRLPRPRPRPAYMPRP | -0.263 |
| RRIRGRPPRLPRPRPRPVQRPRP | 0.739 |
| RRIRLRPPRLPRPRPRPCNKPRP | -0.686 |
| RRIRKRPPRLPRPRPRPFYHPRP | 0.0754 |
| RRIRYRPPRLPRPRPRPTPAPRP | 0.238 |
| RRIRTRPPRLPRPRPRPRHYPRP | -0.162 |
| RRIRHRPPRLPRPRPRPIFRPRP | -0.173 |
| RRIRCRPPRLPRPRPRPMITPRP | -0.0256 |
| RRIRRRPPRLPRPRPRPAERPRP | 0.606 |
| RRIRTRPPRLPRPRPRPLHMPRP | -0.369 |
| RRIRGRPPRLPRPRPRPNTPPRP | 0.237 |

| Sequence | shrunken log2 fold change |
| --- | --- |
| RRIRARPPRLPRPRPRPEIWPRP | 1.55 |
| RRIRWRPPRLPRPRPRPFFVPRP | 0.173 |
| RRIRDRPPRLPRPRPRPPENPRP | 0.856 |
| RRIRVRPPRLPRPRPRPMWRPRP | 0.127 |
| RRIRGRPPRLPRPRPRPSAIPRP | 1.3 |
| RRIRHRPPRLPRPRPRPHMFPRP | -0.358 |
| RRIRYRPPRLPRPRPRPSFNPRP | -0.756 |
| RRIRKRPPRLPRPRPRPCDCPRP | -0.0743 |
| RRIRLRPPRLPRPRPRPHWKPRP | 0.0019 |
| RRIRDRPPRLPRPRPRPNNEPRP | -0.526 |
| RRIRWRPPRLPRPRPRPNYIPRP | -0.57 |
| RRIRRRPPRLPRPRPRPTCCPRP | 0.397 |
| RRIRERPPRLPRPRPRPRAQPRP | 0.22 |
| RRIRIRPPRLPRPRPRPQDNPRP | -0.954 |
| RRIRHRPPRLPRPRPRPRAWPRP | 0.0709 |
| RRIRCRPPRLPRPRPRPWTAPRP | -0.212 |
| RRIRRRPPRLPRPRPRPWKRPRP | -0.0441 |
| RRIRNRPPRLPRPRPRPQNNPRP | -0.734 |
| RRIRIRPPRLPRPRPRPMMYPRP | -0.13 |
| RRIRQRPPRLPRPRPRPIEGPRP | 0.0763 |
| RRIRDRPPRLPRPRPRPRPEPRP | 0.538 |
| RRIRFRPPRLPRPRPRPKEKPRP | -0.0715 |
| RRIRIRPPRLPRPRPRPMWVPRP | -0.11 |
| RRIRRRPPRLPRPRPRPSCGPRP | 0.0769 |
| RRIRQRPPRLPRPRPRPECTPRP | 0.0484 |

| Sequence | shrunken log2 fold change |
| --- | --- |
| RRIRQRPPRLPRPRPRPDLVPRP | -0.0031 |
| RRIRTRPPRLPRPRPRPKHFPRP | -0.0888 |
| RRIRLRPPRLPRPRPRPWGGPRP | 1.94 |
| RRIRTRPPRLPRPRPRPCMAPRP | -0.172 |
| RRIRQRPPRLPRPRPRPHLCPRP | 0.0292 |
| RRIRKRPPRLPRPRPRPMRTPRP | 3.66 |
| RRIRFRPPRLPRPRPRPKFPPRP | -0.0265 |
| RRIRPRPPRLPRPRPRPDGEPRP | 0.0766 |
| RRIRYRPPRLPRPRPRPIDNPRP | -0.542 |
| RRIRGRPPRLPRPRPRPFHNPRP | -0.388 |
| RRIRPRPPRLPRPRPRPRPNPRP | 0.505 |
| RRIRFRPPRLPRPRPRPFIQPRP | -0.707 |
| RRIRHRPPRLPRPRPRPAWVPRP | 0.15 |
| RRIRHRPPRLPRPRPRPQKSPRP | -0.138 |
| RRIRDRPPRLPRPRPRPKRSPRP | -0.0252 |
| RRIRLRPPRLPRPRPRPFHWPRP | -0.000687 |
| RRIRIRPPRLPRPRPRPHKGPRP | -0.145 |
| RRIRKRPPRLPRPRPRPQMSPRP | -0.164 |
| RRIRHRPPRLPRPRPRPVIIPRP | -0.248 |
| RRIRNRPPRLPRPRPRPQDNPRP | 0.0553 |
| RRIRLRPPRLPRPRPRPGSVPRP | 0.0433 |
| RRIRCRPPRLPRPRPRPEDFPRP | -0.198 |
| RRIRTRPPRLPRPRPRPRWCPRP | 0.109 |
| RRIRPRPPRLPRPRPRPSDYPRP | -0.691 |
| RRIRDRPPRLPRPRPRPRPWPRP | 0.25 |

| Sequence | shrunken log2 fold change |
| --- | --- |
| RRIRKRPPRLPRPRPRPTELPRP | 0.876 |
| RRIRERPPRLPRPRPRPCPYPRP | -0.367 |
| RRIRWRPPRLPRPRPRPMYTPRP | 0.0906 |
| RRIRKRPPRLPRPRPRPIVEPRP | 0.00111 |
| RRIRDRPPRLPRPRPRPVHNPRP | -0.585 |
| RRIRIRPPRLPRPRPRPDRKPRP | -0.0167 |
| RRIRFRPPRLPRPRPRPFSMPRP | -0.232 |
| RRIRGRPPRLPRPRPRPAHVPRP | 0.586 |
| RRIRPRPPRLPRPRPRPQRMPRP | 0.209 |
| RRIRRRPPRLPRPRPRPVKDPRP | -0.0534 |
| RRIRARPPRLPRPRPRPLWWPRP | 0.648 |
| RRIRRRPPRLPRPRPRPFRWPRP | 0.279 |
| RRIRTRPPRLPRPRPRPHMLPRP | -0.389 |
| RRIRCRPPRLPRPRPRPWWVPRP | -0.208 |
| RRIRGRPPRLPRPRPRPEGAPRP | 1.49 |
| RRIRCRPPRLPRPRPRPLWNPRP | -0.208 |
| RRIRDRPPRLPRPRPRPYMEPRP | -0.000464 |
| RRIRIRPPRLPRPRPRPGLHPRP | -0.000332 |
| RRIRKRPPRLPRPRPRPWGTPRP | 0.341 |
| RRIRRRPPRLPRPRPRPLTIPRP | -0.133 |
| RRIRNRPPRLPRPRPRPCAYPRP | -0.139 |
| RRIRLRPPRLPRPRPRPMTTPRP | 0.0748 |
| RRIRPRPPRLPRPRPRPTFFPRP | 0.212 |
| RRIRFRPPRLPRPRPRPPYPPRP | -0.0265 |
| RRIRFRPPRLPRPRPRPHASPRP | -0.259 |

| Sequence | shrunken log2 fold change |
| --- | --- |
| RRIRERPPRLPRPRPRPCWCPRP | -0.0114 |
| RRIRYRPPRLPRPRPRPCAVPRP | -0.269 |
| RRIRLRPPRLPRPRPRPVYIPRP | -0.258 |
| RRIRFRPPRLPRPRPRPHHRPRP | -0.401 |
| RRIRGRPPRLPRPRPRPHTWPRP | -0.0293 |
| RRIRTRPPRLPRPRPRPAVFPRP | 0.271 |
| RRIRDRPPRLPRPRPRPYQCPRP | -0.00205 |
| RRIRVRPPRLPRPRPRPREGPRP | 0.307 |
| RRIRNRPPRLPRPRPRPWRAPRP | 0.0962 |
| RRIRDRPPRLPRPRPRPWITPRP | -0.123 |
| RRIRRRPPRLPRPRPRPCSAPRP | 0.34 |
| RRIRKRPPRLPRPRPRPSLFPRP | 0.125 |
| RRIRLRPPRLPRPRPRPCIEPRP | -0.256 |
| RRIRRRPPRLPRPRPRPRALPRP | 0.482 |
| RRIRVRPPRLPRPRPRPDCPPRP | -0.104 |
| RRIRARPPRLPRPRPRPPKLPRP | 0.683 |
| RRIRCRPPRLPRPRPRPKSLPRP | -0.191 |
| RRIRDRPPRLPRPRPRPAPDPRP | 0.533 |
| RRIRCRPPRLPRPRPRPASTPRP | -0.481 |
| RRIRPRPPRLPRPRPRPAFIPRP | -0.222 |
| RRIRPRPPRLPRPRPRPCFIPRP | -0.735 |
| RRIRHRPPRLPRPRPRPIWYPRP | -0.75 |
| RRIRERPPRLPRPRPRPEKTPRP | -0.031 |
| RRIRERPPRLPRPRPRPEDGPRP | -0.0324 |
| RRIRHRPPRLPRPRPRPEHWPRP | 0.237 |

Reference: the supplement of paper PMC9112550, “Optimization of the antimicrobial peptide Bac7 by deep mutational scanning” (BMC Biology, 2022)
